These results are taken from patent US20230009582A1 (MEMO THERAPEUTICS, published 2023).

Assay [1] deals with T1, Siglec-9 expressed on cells (human, UniProt Q9Y336 18-463).
T1 construct: also called monocyte-expressed Siglec-9
Put plainly: flow cytometry on human CD14+ monocytes in PBMC. On the procedure: (§1) Human ex vivo PBMC were stained with fluorescence-labeled (allophycocyanin, APC) antibody to the monocyte marker CD14 (Biolegend) in assay buffer (0.5% (v/v) heat-inactivated fetal bovine serum (Gibco), 2 mM EDTA in phosphate-buffered saline). Subsequently, cells were incubated with antibodies under evaluation at various concentrations (67 nM-0.38 pM). After a washing step cells were incubated with fluorescence-labeled (Brilliant Violet 421™) secondary antibody against human IgG (mAbA) or rabbit IgG (all other monoclonal antibodies under evaluation; both secondary antibodies from Biolegend).
(§2) Binding of Siglec-9-specific antibodies to monocytes (CD14-positive life cells) was analysed with a CytoFLEX flow cytometer (Beckham Coulter's). The mean fluorescence intensity of the secondary antibody staining in the CD14-positive population at each dilution was determined using Flow Jo software (BD). Datapoints generated by this analysis were fitted and EC50 values were determined by three-parameter analysis in GraphPad Prism (GraphPad Software)

For assay [2], the target named is T2, Siglec-8-Fc (R&D systems) (UniProt Q9NYZ4 17-363, limits assumed).
T2 construct: Bought reagent; not shown: Fc part of the bought fusion; not described
T2 sequence (Q9NYZ4 17-363 limits assumed): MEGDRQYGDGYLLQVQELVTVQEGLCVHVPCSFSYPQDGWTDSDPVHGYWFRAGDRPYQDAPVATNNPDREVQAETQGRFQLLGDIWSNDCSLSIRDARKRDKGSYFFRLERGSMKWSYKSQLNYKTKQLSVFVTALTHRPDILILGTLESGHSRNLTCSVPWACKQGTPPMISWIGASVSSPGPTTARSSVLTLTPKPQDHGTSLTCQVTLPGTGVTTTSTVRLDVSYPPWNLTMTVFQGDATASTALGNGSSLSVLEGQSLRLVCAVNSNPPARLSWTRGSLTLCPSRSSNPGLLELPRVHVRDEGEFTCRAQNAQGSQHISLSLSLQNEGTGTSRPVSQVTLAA
Put plainly: ELISA, coated Siglec-8-Fc 1 µg/ml, single antibody concentration, Abs 450 nm, n=3. On the procedure: (§3) Specificity towards Siglec-5, Siglec-7, Siglec-8, Siglec-15 and Siglec-9 was assayed in enzyme-linked immunosorbent assay (ELISA) using 96 well half-area ELISA plates (Corning). Siglec-5-Fc (R&D systems), Siglec-7-Fc (in-house production, Siglec-7-Fc protein used had the following amino acid sequence:
(§4) (SEQ ID NO: 59)) […] […] […] […] […] […] […] […] […] […] […] […], Siglec-8-Fc (R&D systems), Siglec-15- Fc (R&D systems) and Siglec-9-Fc (in-house production, SEQ ID NO: 11) were coated at 1 μg/ml in 50 mM carbonate-bicarbonate buffer pH 9.6 for 15-20 hours at 4° C.
(§5) Antigens were washed away (Tecan Hydrospeed) and plates were blocked with 5% skimmed milk in phosphate-buffered saline (PBS). After washing the plates, antibodies were added at 5 μg/ml (33 nM) in 0.5% milk PBS in triplicates. Plates with antibodies were incubated for 1 hour at room temperature. Plates were washed and bound antibodies were detected by horseradish peroxidase (HRP)-labeled polyclonal anti-rabbit IgG antibody (Biolegend) or anti-human Fab fragment for mAbA (Sigma Aldrich). 3,3′,5,5′-Tetramethylbenzidine (TMB; Sigma Aldrich) development was stopped by addition of sulfuric acid and absorbance was detected at 450 nm (Tecan, CM […] MONO 200).
(In an ELISA, binding on a coated surface is turned into a signal by an enzyme label.)

For assay [3], the target named is T3, Siglec-7-Fc (in-house production).
T3 construct: The entry holds the Siglec-7 part and the Fc together; also called Siglec-7-Fc protein
T3 sequence (chain, as listed by the source limits assumed): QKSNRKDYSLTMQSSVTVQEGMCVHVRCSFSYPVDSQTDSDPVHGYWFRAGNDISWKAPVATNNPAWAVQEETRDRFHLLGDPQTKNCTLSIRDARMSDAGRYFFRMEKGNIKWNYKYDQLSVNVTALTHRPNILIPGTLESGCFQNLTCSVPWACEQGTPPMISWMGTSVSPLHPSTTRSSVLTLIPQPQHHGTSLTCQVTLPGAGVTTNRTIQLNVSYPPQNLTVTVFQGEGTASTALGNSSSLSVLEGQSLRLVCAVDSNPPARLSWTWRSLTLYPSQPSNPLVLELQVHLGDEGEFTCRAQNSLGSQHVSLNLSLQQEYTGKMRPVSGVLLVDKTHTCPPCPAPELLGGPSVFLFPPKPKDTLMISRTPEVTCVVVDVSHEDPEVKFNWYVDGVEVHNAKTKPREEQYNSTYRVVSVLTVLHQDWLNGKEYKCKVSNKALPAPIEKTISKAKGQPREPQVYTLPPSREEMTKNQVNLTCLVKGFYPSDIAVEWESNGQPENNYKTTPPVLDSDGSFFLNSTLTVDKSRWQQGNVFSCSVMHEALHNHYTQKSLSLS
Kind of assay: ELISA, coated Siglec-7-Fc 1 µg/ml, single antibody concentration, anti-human Fab detection, Abs 450 nm, n=3. The procedure: as §3, §4, §5

Assay [4] has as its target T2, Siglec-8-Fc (R&D systems). Put plainly: ELISA, coated Siglec-8-Fc 1 µg/ml, single antibody concentration, anti-human Fab detection, Abs 450 nm, n=3. The procedure:
as §3, §4, §5

For assay [5], the target named is T4, Siglec-15-Fc (R&D systems) (UniProt Q6ZMC9 20-263, limits assumed).
T4 construct: Bought reagent; not shown: Fc part of the bought fusion; not described
T4 sequence (looked up): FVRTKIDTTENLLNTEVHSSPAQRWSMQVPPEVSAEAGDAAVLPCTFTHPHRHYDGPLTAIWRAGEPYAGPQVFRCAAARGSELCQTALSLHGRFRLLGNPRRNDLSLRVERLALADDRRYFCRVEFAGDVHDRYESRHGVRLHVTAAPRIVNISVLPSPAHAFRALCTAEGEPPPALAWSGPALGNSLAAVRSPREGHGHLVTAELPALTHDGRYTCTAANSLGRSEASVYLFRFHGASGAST
Kind of assay: ELISA, coated Siglec-15-Fc 1 µg/ml, single antibody concentration, anti-human Fab detection, Abs 450 nm, n=3. On the procedure:
as §3, §4, §5

Assay [6] concerns the target T1, Siglec-9 expressed on cells. Put plainly: flow cytometry on human CD14+ monocytes (PBMC), mean RFU of the anti-human secondary antibody, three-parameter fit. On the procedure:
as §1, §2
In general terms: Flow cytometry measures light scatter and fluorescence of single cells or particles in a stream.

T1 sequence (Q9Y336 18-463 limits assumed): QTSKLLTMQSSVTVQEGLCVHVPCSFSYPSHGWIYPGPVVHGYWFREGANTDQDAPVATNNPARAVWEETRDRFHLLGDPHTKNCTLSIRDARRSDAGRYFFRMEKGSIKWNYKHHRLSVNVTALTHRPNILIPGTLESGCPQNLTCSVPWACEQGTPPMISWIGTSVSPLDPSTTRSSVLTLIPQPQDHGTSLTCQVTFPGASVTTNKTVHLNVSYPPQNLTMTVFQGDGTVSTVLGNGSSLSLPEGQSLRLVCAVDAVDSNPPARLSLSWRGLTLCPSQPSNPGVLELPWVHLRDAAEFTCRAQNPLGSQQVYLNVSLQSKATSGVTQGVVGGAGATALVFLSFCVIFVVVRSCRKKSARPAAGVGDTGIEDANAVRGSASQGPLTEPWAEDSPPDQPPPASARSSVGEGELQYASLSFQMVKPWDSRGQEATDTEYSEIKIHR

B1: monoclonal antibody 224B1 (rabbit) (antibody, V domains shown)
VH: QSVEESGGRLVTPETPLTLTCTASGFSLSSYYMSWVRQAPGKGLEWIGYIWTDGSAHYATWTKGRFTISKTSSTTVDLKITSPTTEDTATYFCVRANSGSHTYIEKFNLWGPGTLVTVSS
VL: DVVMTQTPASVEATVGGSVTIKCQASPSINDELSWYQQKPGQRPTLLIYEASALESGVPSRFKGSGSGTEFTLTIGDLECADAATYYCQCTYGSRSDISYGNTFGGGTEVVVKG
Consider B1, for which the “fold stronger binding than 5C6” value in assay [1] was roughly 10 fold. Also, the binding result in assay [2] is “no binding (tested: 5 µg/ml)”.

B2: comparative monoclonal antibody mAbA (WO 2017/153433), mouse-human chimera (antibody, human IgG1, kappa, V domains shown)
VH: QVQLQQPGAELVKPGSPVKLSCKASYFTFTSYWMHWVRQRPGQGLEWIGEINPSNGHTNYNEKFESKATLTVDRSSSTAYMQLSSLTSEDSAVFYCANGVESYDFDDALDYWGQGTSVTVSS
VL: DIQMTQTTSSLSASLGDRVTISCRASQDINNYLNWYQQKPDGTIKLLIYYTSRLHSGVPSRFSGSGSGTDYSLTINNLEQEDIATYFCQQGNTLPFTFGGGTKLEIKR
What is called EC50 is the midpoint of the concentration-response curve. The low end stands for a more potent agent, the high end for a less potent agent. For B2, the binding result in assay [3], in assay [4] and in assay [5] was “no binding (tested: 5 µg/ml)” each time. Moreover, in assay [6], the EC50 was found to be 0.58 nM.
